Assay results from publication PMC4514675, “Novel Apo E-Derived ABCA1 Agonist Peptide (CS-6253) Promotes Reverse Cholesterol Transport and Induces Formation of preβ-1 HDL In Vitro” (PLoS ONE, 2015).
Several values for one entry are separate records, joined by “and”; a condition that tells them apart may be missing. Equal values may be shown once.

Experiments:
[1] = system: HDL subpopulations in human plasma; experiment: HDL subpopulation remodelling (preβ-1 HDL formation) in human plasma, 2D-PAGGE; settings: 10 μg lipid free apoA-I: 1 μg plasma apoA-I, 37°C
Description: Apo A-I and CS-6253-containing particles were separated according to charge (agarose, horizontal axis) and size (polyacrylamide gradient, 3% to 20% gel, vertical axis) as previously described. Apo A-I-containing particles were detected by incubating the membranes with immunopurified polyclonal anti-apo A-I antibody (Biodesign). The nHDL-CS-6253 containing particles were detected with immunopurified polyclonal anti-CS-6253 antibody (Biosynthesis Inc., Lewisville, TX). The anti-CS-6253 is a purified rabbit IgG polyclonal antibody specifically produced by Biosynthesis Inc. It is. Cross reactivity of this antibody was verified by Nondenaturing gradient gel electrophoresis (ND-PAGGE) 5% to 35% [24]. The anti-CS-6253 antibody recognizes only CS-6253 peptide in plasma; neither apo A-I nor apo E were detected by this antibody after separation by gradient gel electrophoresis respectively (Fig 1A, 1B and 1C). […]
Fig 8 Time dependent effects of incubation of lipid free CS-6253 with human plasma, on HDL subparticles. […] HDL subpopulations were detected by an anti-apo A-I antibody. […] HDL subfractions were detected by an antibody against CS-6253. […]
Fig 9 Time dependent effects of incubation of lipid free CS-6253 with human plasma, on HDL subparticles. […] Samples were separated by 2D-PAGGE, and ^125I-apoA-I was detected by autoradiography. […]

[2] = molecular target: ABCA1 (Homo sapiens, UniProt O95477); experiment: ABCA1-mediated cholesterol efflux from BHK-ABCA1 cells, acceptor in media; type: cell-based; parameters: expressed in transfected cells; host or cells: BHK cells, stably transfected, induced with 10 nM mifepristone (gift of J. F. Oram); settings: BHK-ABCA1 induced with mifepristone, 4 h, 37°C, mean ± SD
Chain of ABCA1 (O95477 whole entry): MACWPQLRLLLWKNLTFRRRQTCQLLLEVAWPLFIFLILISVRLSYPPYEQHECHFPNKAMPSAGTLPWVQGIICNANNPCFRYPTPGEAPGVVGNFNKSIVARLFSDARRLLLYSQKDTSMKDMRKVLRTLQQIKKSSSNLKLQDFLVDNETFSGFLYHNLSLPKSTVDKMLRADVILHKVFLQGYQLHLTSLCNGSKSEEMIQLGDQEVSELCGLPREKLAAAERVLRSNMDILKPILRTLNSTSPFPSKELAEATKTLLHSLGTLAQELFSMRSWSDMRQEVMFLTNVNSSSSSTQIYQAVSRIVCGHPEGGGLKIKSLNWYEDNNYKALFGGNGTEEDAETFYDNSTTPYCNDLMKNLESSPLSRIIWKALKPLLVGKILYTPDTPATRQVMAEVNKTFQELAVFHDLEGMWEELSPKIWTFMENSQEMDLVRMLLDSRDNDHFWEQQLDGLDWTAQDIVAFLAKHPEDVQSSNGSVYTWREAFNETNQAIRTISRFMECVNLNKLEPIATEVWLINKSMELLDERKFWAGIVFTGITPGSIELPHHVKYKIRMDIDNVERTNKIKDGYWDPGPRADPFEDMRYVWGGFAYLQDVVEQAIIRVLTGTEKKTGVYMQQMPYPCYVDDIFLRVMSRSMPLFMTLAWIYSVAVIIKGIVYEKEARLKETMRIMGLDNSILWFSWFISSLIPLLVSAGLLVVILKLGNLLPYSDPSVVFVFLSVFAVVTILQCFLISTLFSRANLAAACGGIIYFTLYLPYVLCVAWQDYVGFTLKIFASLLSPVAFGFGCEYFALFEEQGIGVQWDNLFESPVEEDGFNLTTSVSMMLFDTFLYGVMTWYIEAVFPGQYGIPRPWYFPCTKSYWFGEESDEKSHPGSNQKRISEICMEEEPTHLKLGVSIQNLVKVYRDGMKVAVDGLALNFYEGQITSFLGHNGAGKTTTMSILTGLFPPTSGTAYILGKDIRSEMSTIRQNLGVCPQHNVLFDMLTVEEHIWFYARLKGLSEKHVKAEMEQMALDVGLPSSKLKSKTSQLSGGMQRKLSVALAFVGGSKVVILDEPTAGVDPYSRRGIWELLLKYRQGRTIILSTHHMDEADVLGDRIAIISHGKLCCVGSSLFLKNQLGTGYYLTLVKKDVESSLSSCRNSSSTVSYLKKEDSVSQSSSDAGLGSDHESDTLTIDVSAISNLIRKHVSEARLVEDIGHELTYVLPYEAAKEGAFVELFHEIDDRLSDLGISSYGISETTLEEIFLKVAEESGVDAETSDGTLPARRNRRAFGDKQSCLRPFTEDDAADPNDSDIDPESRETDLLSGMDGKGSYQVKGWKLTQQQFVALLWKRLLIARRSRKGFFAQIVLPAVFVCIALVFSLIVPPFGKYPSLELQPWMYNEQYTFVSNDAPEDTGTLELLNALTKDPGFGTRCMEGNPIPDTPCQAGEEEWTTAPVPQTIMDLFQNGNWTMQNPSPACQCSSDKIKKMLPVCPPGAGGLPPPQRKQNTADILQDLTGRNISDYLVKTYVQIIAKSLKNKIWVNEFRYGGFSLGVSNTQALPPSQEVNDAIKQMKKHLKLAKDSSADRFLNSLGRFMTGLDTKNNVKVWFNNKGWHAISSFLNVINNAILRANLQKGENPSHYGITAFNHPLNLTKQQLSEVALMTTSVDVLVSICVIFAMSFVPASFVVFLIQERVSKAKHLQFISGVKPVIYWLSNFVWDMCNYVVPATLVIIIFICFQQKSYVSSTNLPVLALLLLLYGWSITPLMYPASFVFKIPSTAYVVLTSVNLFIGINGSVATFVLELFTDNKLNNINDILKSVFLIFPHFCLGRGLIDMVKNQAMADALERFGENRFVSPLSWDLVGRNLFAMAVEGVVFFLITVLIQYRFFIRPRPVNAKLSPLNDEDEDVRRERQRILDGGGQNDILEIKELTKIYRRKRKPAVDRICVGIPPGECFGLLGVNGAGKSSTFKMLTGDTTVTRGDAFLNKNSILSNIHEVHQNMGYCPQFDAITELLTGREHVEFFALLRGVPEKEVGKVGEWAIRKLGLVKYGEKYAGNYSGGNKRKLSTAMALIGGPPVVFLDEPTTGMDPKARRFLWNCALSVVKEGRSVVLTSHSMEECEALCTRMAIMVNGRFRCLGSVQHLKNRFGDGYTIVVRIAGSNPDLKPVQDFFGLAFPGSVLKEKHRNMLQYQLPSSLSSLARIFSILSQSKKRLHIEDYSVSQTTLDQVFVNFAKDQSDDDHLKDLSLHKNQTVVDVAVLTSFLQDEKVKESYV
Source text: BHK cells stably transfected with an ABCA1 or ABCG1 expression vector that is mifepristone inducible and cells transfected with the same vector lacking the ABCA1 cDNA insert (mutant or mock-transfected) were generously provided by the late Dr. John F. Oram from the Department of Medicine, University of Washington, and were characterized and cultured as previously described. […] Mouse-derived peritoneal macrophages J774 were purchased from American Tissue Culture Collection (ATCC TIB-67, Cederlane, Burlington, Canada). For induction of ABCA1, BHK cells were incubated for 18–20 h with 10 nM mifepristone. J774 macrophages were stimulated with 0.3 mM Cpt-cAMP 8-(4-Chlorophenylthio)-cyclic adenosine monophosphate (Sigma). All BHK and J774 macrophages cells were respectively grown and maintained in DMEM and RPMI containing 10% fetal serum until experimental treatment. Studies were carried out on standard 24-well plates (150,000 cells/well) unless stated otherwise
We investigated cholesterol efflux from BHK cells after adding lipid free CS-6253 to media cell culture or to human EDTA-plasma which had been stored at -80°C. BHK overexpressing human ABCA1 were labeled with 2 μCi/ml ^3H-free cholesterol (Perkin Elmer, Norwalk, Connecticut) for 24 h. Afterward, BHK-ABCA1 were stimulated with 10 nmol/l mifepristone for 18–20 h (13). Cells were incubated with various doses of acceptor in media for 4 h at 37°C. Alternatively, plasma samples were first pre-incubated for 5 min at 37°C in plasma at mole ratios (10:1 or 1:1 relative to plasma apo A-I). To obtain the HDL fraction, apoB lipoproteins were precipitated from plasma by polyethylene glycol (PEG). […]
Fig 2 Effect of CS-6253 treatment on cholesterol efflux. […] Cholesterol efflux from either ABCA1 cells or control cells to apo A-I (closed circles), and CS-6253 (closed triangles) was determined at the indicated time points. […] ABCA1 was detected from THP-1 foam cells lysis at 4°C with lysis buffer containing 0.5% n-dodecylmaltoside in the presence of a protease inhibitor mixture followed by low speed centrifugation to remove cell debris. Protein concentration was determined by standard assay (Bio-Rad). […] After electrophoresis, ABCA1 was detected by an anti-ABCA1 antibody. […] E. Quantification of FC and CE in foam cells after interaction with CS-6253 and apoA-I. After a period of 4h cholesterol efflux, THP-1 foam cell lipids were extracted with hexane: isopropanol (3v/2v) as under ‘‘Material and Methods’. 3[H]-FC and 3[H]-CE were separated by TLC and located by exposure to iodine vapor, and were scraped off into liquid scintillating vials and assayed for radioactivity. […]

[3] = system: LCAT; experiment: LCAT activity (fractional esterification rate) in human plasma; type: biochemical; settings: 2 mM DTNB, 1 h, 37°C
Description: Supplementary file pone.0131997.s011.tif: S10 Fig Dynamics of esterification of nascent […]-6253 particles were labelled with cell derived ^3[H]cholesterol and incubated with a normolipidemic plasma at a ratio of (1μg peptide: 10μg plasma apo A-I). LCAT activity was determined after incubation for 1h at 37°C in the presence or absence of 2 mM DTNB. After lipid extraction, ^3[H]cholesterol (unesterified) and ^3[H]CE from plasma were separated by TLC and assayed for radioactivity as described in the online-only Supplementary appendix, S1 Appendix. LCAT activity was measured as CE divided by cholesterol/h. Results are mean (±SD) of triplicate experiments. *P<0.05. (TIF) Click here for additional data file. The fractional cholesterol esterification rate (FER) of LCAT activity was assayed with standard methodology (1,2). […] Cholesterol labeled nHDL particles, Lp-CS-6253 or […] plasma apo A-I), are incubated in total plasma pooled from healthy control subjects for 1h at 37 °C (3). This ratio is selected based on the assumption that the in vivo nascent HDL pool represented ∼10% of total plasma apoA-I mass (4). […] Cellular lipids were extracted and ^3[H]cholesterol and ^3[H]cholesteryl esters (CE) were separated by TLC. The lipids ^3[H]free cholesterol and ^3[H]CE were located by exposure to iodine vapor, and were scraped into liquid scintillating vials and assayed for radioactivity. […]

[4] = molecular target: ABCA1 (human, expressed in BHK cells) (human) (UniProt O95477); experiment: cross-linking; intact mifepristone-stimulated BHK-ABCA1 cells in the presence of apo A-I or CS-6253 (0.96 μM), cross-linked or not with 500 μM DSP; lysis with 0.5% n-dodecylmaltoside; SDS-PAGE (4–22.5%), anti-ABCA1 blot; no DTT
[5] = system: SR-BI; experiment: SR-BI-mediated cholesterol uptake in Fu5AH hepatoma cells; type: cell-based, rat; settings: 2 h pretreatment of Fu5AH cells; uptake from CS-6253 or apo A-I nHDL
Description: J774 cells were labeled for 24h with ^3[H]-cholesterol (Perkin Elmer, Norwalk, Connecticut) in medium containing 1% FBS. Unlabeled rat Fu5AH hepatoma cells that express high levels of SR-BI, were prepared as described previously. Fu5AH were first seeded on 24-well plate at a density of 2x10^5 cells/well in DMEM plus 10% FBS. SR-BI mediated cholesterol uptake is determined as previously reported. The nHDL particles were generated in media cell culture after 6h incubation of cAMP stimulated J774 cells with increased molar concentrations relative to native apo A-I of lipid free CS-6253 (0, 0.018, 0.071, 0.179, 0.357, 0.536, 0.714, and 1.071 μM). […] The total of ^3H-label present in the lipid extract from cells (% cpm) was quantified by liquid scintillation, and plotted as cell-associated radioactivity as described by Yancey et al.. The contribution of SR-BI to the influx of HDL cholesterol (HDL-C) was assessed by a 2h pretreatment of Fu5AH cells with blocker of lipid transport-1 (BLT-1) to inhibit any transport of cholesterol from HDL to the cells via SR-BI [31]. […]
Fig 10 Uptake of cholesterol to hepatic cells expressing SR-BI from plasma containing HDL-CS-6253 or HDL-apo A-I. A. Fu5AH liver hepatoma cells expression of SR-BI transporter ability. […] Protein concentration was determined by standard assay (Bio-Rad). […]

Which “increase in preβ-1 particles, 5 min (125I-apoA-I control)” value ([1]; 5 min) does the source give for “^125I-lipid free apoA-I: apo A-I iodinated with 125I by Iodo-Gen” here?
Its value is 0.23 fold.

And the “increase in preβ-1 particles, 2 h (125I-apoA-I control)” value ([1]; 2 h)?
The value was 0.4 fold.

Which “Km, cholesterol efflux” value [2] does the source give for apolipoprotein E [apo E] here?
The value was 10.30±2.84 μg/ml and 0.21±0.05 μM.

What about the “Vmax, cholesterol efflux” value [2] of the same compound?
Its value is 11.45±1.16 % efflux/4h.

How did the “inhibition of LCAT” value [3] turn out when O=C(O)c1cc(SSc2ccc([N+](=O)[O-])c(C(=O)O)c2)ccc1[N+](=O)[O-] [DTNB, 5,5′-Dithiobis(2-nitrobenzoic acid)] was run?
Its value is 98.37 ± 0.08%.

With “ABCA1 (human, expressed in BHK cells), O95477 1-2261” as the compound, how does the ratio of ABCA1 dimer: monomer (cells with CS-6253) [4] read?
Its ratio of ABCA1 dimer: monomer (cells with CS-6253) is 56.5%.

What about the ratio of ABCA1 dimer: monomer (cells with apo A-I) [4] of the same compound?
The ratio of ABCA1 dimer: monomer (cells with apo A-I) was 69.2%.

What about the stoichiometry N [4] of the same compound?
The stoichiometry N was 2.

Which “effect on cholesterol uptake (in words)” value [5] does the source give for CCCCCCC1CCCC1=NNC(N)=S (stereo not drawn) [BLT-1] here?
Its value is “inhibited uptake of cholesterol from CS-6253 or apo A-I nHDL”.
